Test [1] concerns the target recombinant Fc-tagged CD55 (UniProt P08174). Kind of test: SPR; Biacore T200, 25°C; CD55-Fc immobilized on a Protein G chip, tetramers or monomers as analyte; 150mM NaCl, 0.05% BSA, 0.05% Tween-20, pH 7,5; KD calculated from kon and koff; biological duplicate.
A further test has as its target Δ2 CD55 IRES GFP. Description: flow cytometry on cells.

The values that follow come from PMC11209011.

Sequence of UniProt P08174 (P08174 35-353): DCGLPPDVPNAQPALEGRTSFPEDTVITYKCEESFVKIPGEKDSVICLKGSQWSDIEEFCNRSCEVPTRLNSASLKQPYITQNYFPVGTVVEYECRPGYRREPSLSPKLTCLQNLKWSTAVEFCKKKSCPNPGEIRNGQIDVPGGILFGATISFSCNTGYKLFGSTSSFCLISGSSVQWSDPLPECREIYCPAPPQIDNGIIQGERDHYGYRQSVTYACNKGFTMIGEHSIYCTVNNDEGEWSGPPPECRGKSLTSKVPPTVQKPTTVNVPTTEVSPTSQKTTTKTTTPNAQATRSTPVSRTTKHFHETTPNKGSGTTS

For “HLA-C∗07:01-VRIG tetramer (from UniProt P61769 21-119) (peptide-MHC)”, the Kd in test [1] was 1400 nM. In the test with Δ2 CD55 IRES GFP, this substance gave a reduction of the interaction against full length CD55 of 50%.

By Kd is commonly meant the free concentration of one partner at which half of the binding sites on the other are occupied at equilibrium, for simple one-to-one binding.
